One molecule from PMC6274671 (International Journal of Molecular Sciences, 2018) can be followed below.

In the assay the target is T1, bovine serum albumin (Bos taurus, UniProt P02769).
T1 construct: also called BSA
Description: ELISA. The note with it: both partners purified.

T1 sequence (P02769 25-607): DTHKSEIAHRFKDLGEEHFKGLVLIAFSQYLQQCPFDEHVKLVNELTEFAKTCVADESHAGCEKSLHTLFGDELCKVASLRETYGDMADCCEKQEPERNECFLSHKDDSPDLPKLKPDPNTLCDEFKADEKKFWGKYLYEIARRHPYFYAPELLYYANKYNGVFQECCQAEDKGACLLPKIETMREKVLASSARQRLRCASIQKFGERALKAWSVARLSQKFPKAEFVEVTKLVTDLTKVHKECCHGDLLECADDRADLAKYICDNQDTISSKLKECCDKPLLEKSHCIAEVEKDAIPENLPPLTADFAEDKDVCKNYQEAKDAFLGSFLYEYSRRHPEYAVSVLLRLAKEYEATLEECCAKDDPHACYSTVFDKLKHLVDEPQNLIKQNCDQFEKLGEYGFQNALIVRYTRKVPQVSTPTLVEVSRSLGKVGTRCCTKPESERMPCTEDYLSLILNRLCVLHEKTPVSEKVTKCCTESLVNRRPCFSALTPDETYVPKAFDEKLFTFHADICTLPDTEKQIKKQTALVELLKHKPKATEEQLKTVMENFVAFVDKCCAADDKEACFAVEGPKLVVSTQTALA

B1: fluorescein-specific VHH-D4 (VHH)
VHH: QVQLVESGGALVQPGGSLRLSCAASGFTFGSFSMSWYRQATGKEREWVAGLSAGSSSTYYADSVKGRFTISRDNARNTVYLQMNSLKPEDTAVYYCARRTNTSSGSAGSFSTCIDDWGQGTQVTVSS
notes: also called clone D4
For B1, the binding result was “no binding”.
